These results are taken from PMC8891019, “TDP-43 represses cryptic exon inclusion in the FTD–ALS gene UNC13A”.

Data set [1] addresses T1, TDP-43-MBP (full-length wild-type TDP-43) (UniProt Q13148 1-414). Kind of data set: EMSA; Kd,app only in figure; much higher affinity than exon or repeat; EMSA: 1 nM RNA, 50 mM Tris-HCl pH 7.5, 100 mM KCl, 2 mM MgCl2, 100 mM beta-mercaptoethanol, 0.1 mg/ml BSA, 30 min, room temperature; TDP-43 0-4 (printed mM in Methods, 0-8 uM in legend); 6% native PAGE, Cy5 imaging. Particulars: protein: recombinant; tags: MBP; Ni-NTA purified; label: 5' Cy3 on strand 1; 3' Cy5 on 18-mer; 18 bp duplex at 3' end of strand 1, 5' ssRNA overhang. For orientation: A gel shift assay detects complexes by their altered migration in electrophoresis.

Data set [2] concerns the target T1, TDP-43-MBP (full-length wild-type …). Kind of data set: EMSA; Kd,app only in figure; much lower affinity than intron probe; EMSA: 1 nM RNA, 50 mM Tris-HCl pH 7.5, 100 mM KCl, 2 mM MgCl2, 100 mM beta-mercaptoethanol, 0.1 mg/ml BSA, 30 min, room temperature; TDP-43 0-4 (printed mM in Methods, 0-8 uM in legend); 6% native PAGE, Cy5 imaging. Particulars: protein: recombinant, tags: MBP, Ni-NTA purified, label: 5' Cy3 on strand 1, 3' Cy5 on 18-mer.

Data set [3] has the same target. Kind of data set: EMSA; Kd,app only in figure; affinity similar to CE Ref; EMSA: 1 nM RNA, 50 mM Tris-HCl pH 7.5, 100 mM KCl, 2 mM MgCl2, 100 mM beta-mercaptoethanol, 0.1 mg/ml BSA, 30 min, room temperature; TDP-43 0-4 (printed mM in Methods, 0-8 uM in legend); 6% native PAGE, Cy5 imaging. Particulars: protein: recombinant; tags: MBP; Ni-NTA purified; label: 5' Cy3 on strand 1; 3' Cy5 on 18-mer; 18 bp duplex at 3' end of strand 1, 5' ssRNA overhang 26 nt.

T1 sequence (Q13148 whole entry): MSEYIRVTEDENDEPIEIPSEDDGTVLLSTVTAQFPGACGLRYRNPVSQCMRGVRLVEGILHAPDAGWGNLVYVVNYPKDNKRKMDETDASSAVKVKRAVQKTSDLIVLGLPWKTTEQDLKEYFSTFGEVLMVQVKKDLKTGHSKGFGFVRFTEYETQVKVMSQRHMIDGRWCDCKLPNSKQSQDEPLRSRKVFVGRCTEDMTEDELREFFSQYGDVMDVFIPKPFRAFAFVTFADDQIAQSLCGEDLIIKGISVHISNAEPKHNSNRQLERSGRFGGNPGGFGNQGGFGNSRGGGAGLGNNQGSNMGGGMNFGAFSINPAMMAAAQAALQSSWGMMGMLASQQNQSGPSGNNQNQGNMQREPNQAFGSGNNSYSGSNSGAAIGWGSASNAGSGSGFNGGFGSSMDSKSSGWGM

B1: Intron Ref (U), rs12608932 (mixed)
RNA 1: AAUGGAUGGUUGGAUAAAUUGAUGGGUGGAUGGAUGCCUCGCUGCCGUCGCCA
RNA 2: UGGCGACGGCAGCGAGGC
modifications: 5' biotin on 18-mer strand
For B1, in data set [1], the binding result was “binds”.

B2: CE Ref (G), rs12973192 (mixed)
RNA 1: AAGGAUGGAUGGAGAGAUGGGUGAGUGCCUCGCUGCCGUCGCCA
RNA 2: UGGCGACGGCAGCGAGGC
modifications: 5' biotin on 18-mer strand
In the case of B2, in data set [2] (18 bp duplex at 3' end of strand 1, 5' ssRNA overhang 26 nt), the binding result is “binds”.

B3: CE Risk (C), rs12973192 (mixed)
RNA 1: AAGCAUGGAUGGAGAGAUGGGUGAGUGCCUCGCUGCCGUCGCCA
RNA 2: UGGCGACGGCAGCGAGGC
modifications: 5' biotin on 18-mer strand
B3: the binding result in data set [3] is “binds”.

B4: Repeat Ref ((GATG)4), rs56041637 (mixed)
RNA 1: UGGAUGGAUGGAUGGAUGGAGCCUCGCUGCCGUCGCCA
RNA 2: UGGCGACGGCAGCGAGGC
modifications: 5' biotin on 18-mer strand
For B4, the binding result in data set [2] (18 bp duplex at 3' end of strand 1, 5' ssRNA overhang 20 nt) was “binds”.
